Reference: PMC2172197
Like-named read-outs stand apart in the source and are kept apart here.

How the values were obtained:
[1] = target: pFd-protAHis (preferredoxin fused to Staphylococcal protein A, COOH-terminal hexahistidine tag); test: pull-down
[2] = target: pFd-protAHis (preferredoxin fused to Staphylococcal protein A, COOH-terminal hexahistidine tag); test: pull-down; remark: listed apart in the source

[35S]atToc159 (in vitro-translated soluble atToc159) (from UniProt O81283 1-1503) (receptor)
percent reduction of binding against GTP [1]: 20%
percent reduction of binding against GTP [2]: 20%

[35S]atToc159-K868R (from UniProt O81283 1-1503) (receptor)
percent less binding than wild-type atToc159 [2]: 60%

[35S]atToc159G (in vitro-translated G domain of atToc159) (domain or fragment)
fold higher binding than to Fd-protAHis [2]: 3 fold
